Measurements published in US20100317723, “Nucleolin Specific Aptamer and Use thereof” (POSTECH ACADEMY-INDUSTRY FOUDATION, published 2010).

How the values were obtained:
[1] = biological target: T1, Nucleolin (cell-surface, human cancer cell lines) (UniProt P19338 P19338:2-710); assay: HeLa cell fluorescence; reference; conditions: tags: endogenous on HeLa, MDA-MB231, HepG2, AGS, OVCAR-3, U87MG cells (ATCC); label: 5'-Cy3; G4
Method: (§1) To determine the targeting efficiency of the cancers, fluorescence intensities of forty-seven Cy3-labeled BzdU-containing GRO29A and eighteen Cy3-labeled NapdU-containing GRO29A compounds were quantified to evaluate their targeting efficiency at C6 cells by the Varioskan Flash spectral scanning multimode reader (Thermo Fisher Scientific Inc. Waltham, Mass.; excitation: 535 nm, scanning wavelength: 570 nm with a band width: 12 nm). C6 cells were seeded 1×10⁵ cell density onto Magne to FACTION 24 plate (Chemicell, GmbH, Germany) and caring at a 5% CO₂-humidified chamber. […] These cells were collected by PBS (1×) (120 μl) and transferred into 96-well plate (Chemicell, GmbH, Germany) for measurement of fluorescence intensity (100 μl).
(§2) To test functional activity of BzdU-containing GRO29A, the compounds numbers 1642-39, 1642-51 and 1642-19, in other cancer cells, the inventors first extended cancer targeting assay by selecting another cancer cells, HeLa (human cervix cancer cell line, ATCC), and a normal healthy cell line, CHO (chinese hamster ovary cell line, ATCC). The measurement of fluorescence intensity was performed as described above for C6 cells.

[2] = biological target: T2, Nucleolin (cell-surface, C6 rat glioma cells) (UniProt P13383 P13383:1-713); assay: cell fluorescence and confocal on C6 cells, 20 nM, 4 C; reference; conditions: tags: endogenous on C6 cells (ATCC); label: 5'-Cy3; G4
Method: as §1, with “chamber. After 24 hours of grown, these seeded cells were incubated in DMEM (Dubelocos' modified essential media) with 20 nM of Cy3-labeled GRO29A or AS1411, or 20 nM of each of the Cy3-labeled modified dU-containing GRO29A or AS1411 compounds at for 30 minute at 4° C. for decreasing non-specific binding during 30 min and rinsed by PBS (1×), then replaced to 200 μl Tris buffer, and then treated with each of 47 different compounds (20 pmole).” for “chamber.”, “μl). […]” for “μl).”

[3] = biological target: T2, Nucleolin (cell-surface, C6 rat glioma …); assay: C6 cell fluorescence, about 1.5 fold or more, 20 nM; conditions: tags: endogenous on C6 cells (ATCC); label: 5'-Cy3; G4
Method: (§3) To determine the targeting efficiency of the cancers, fluorescence intensities of forty-seven Cy3-labeled BzdU-containing GRO29A and eighteen Cy3-labeled NapdU-containing GRO29A compounds were quantified to evaluate their targeting efficiency at C6 cells by the Varioskan Flash spectral scanning multimode reader (Thermo Fisher Scientific Inc. Waltham, Mass.; excitation: 535 nm, scanning wavelength: 570 nm with a band width: 12 nm). C6 cells were seeded 1×10⁵ cell density onto Magne to FACTION 24 plate (Chemicell, GmbH, Germany) and caring at a 5% CO₂-humidified chamber. After 24 hours of grown, these seeded cells were incubated in DMEM (Dubelocos' modified essential media) with 20 nM of Cy3-labeled GRO29A or AS1411, or 20 nM of each of the Cy3-labeled modified dU-containing GRO29A or AS1411 compounds at for 30 minute at 4° C. for decreasing non-specific binding during 30 min and rinsed by PBS (1×), then replaced to 200 μl Tris buffer, and then treated with each of 47 different compounds (20 pmole). Then, seeded cells was washed with PBS (phosphate buffered saline) two times each for 10 min at RT using shaking incubation (30 rpm) to remove the unbound Cy3-labeled modified dU-containing GRO29A or AS1411 compounds, and subjected to trypsinization to detach from the plate surface. These cells were collected by PBS (1×) (120 μl) and transferred into 96-well plate (Chemicell, GmbH, Germany) for measurement of fluorescence intensity (100 μl).

[4] = biological target: T1, Nucleolin (cell-surface, human cancer …); assay: HeLa cell fluorescence; conditions: tags: endogenous on HeLa, MDA-MB231, HepG2, AGS, OVCAR-3, U87MG cells (ATCC); label: 5'-Cy3; G4
Method: as §1, §2

[5] = biological target: T2, Nucleolin (cell-surface, C6 rat glioma …); assay: C6 cell fluorescence, 20 nM; confirmed by confocal; conditions: tags: endogenous on C6 cells (ATCC); label: 5'-Cy3; G4
Method: as §3, with “Then, seeded cells was washed with PBS (phosphate buffered saline) two times each for 10 min at RT using shaking incubation (30 rpm) to remove the unbound Cy3-labeled modified dU-containing GRO29A or AS1411 compounds, and subjected to trypsinization to detach from the plate surface.” left out, “μl). […]” for “μl).”

[6] = biological target: T2, Nucleolin (cell-surface, C6 rat glioma …); assay: C6 cell fluorescence, about 1.5 fold or more, 20 nM; confirmed by confocal; conditions: tags: endogenous on C6 cells (ATCC); label: 5'-Cy3; G4
Method: as §3, with “Then, seeded cells was washed with PBS (phosphate buffered saline) two times each for 10 min at RT using shaking incubation (30 rpm) to remove the unbound Cy3-labeled modified dU-containing GRO29A or AS1411 compounds, and subjected to trypsinization to detach from the plate surface.” left out, “μl). […]” for “μl).”

T2 sequence (P13383 whole entry, one chain of several): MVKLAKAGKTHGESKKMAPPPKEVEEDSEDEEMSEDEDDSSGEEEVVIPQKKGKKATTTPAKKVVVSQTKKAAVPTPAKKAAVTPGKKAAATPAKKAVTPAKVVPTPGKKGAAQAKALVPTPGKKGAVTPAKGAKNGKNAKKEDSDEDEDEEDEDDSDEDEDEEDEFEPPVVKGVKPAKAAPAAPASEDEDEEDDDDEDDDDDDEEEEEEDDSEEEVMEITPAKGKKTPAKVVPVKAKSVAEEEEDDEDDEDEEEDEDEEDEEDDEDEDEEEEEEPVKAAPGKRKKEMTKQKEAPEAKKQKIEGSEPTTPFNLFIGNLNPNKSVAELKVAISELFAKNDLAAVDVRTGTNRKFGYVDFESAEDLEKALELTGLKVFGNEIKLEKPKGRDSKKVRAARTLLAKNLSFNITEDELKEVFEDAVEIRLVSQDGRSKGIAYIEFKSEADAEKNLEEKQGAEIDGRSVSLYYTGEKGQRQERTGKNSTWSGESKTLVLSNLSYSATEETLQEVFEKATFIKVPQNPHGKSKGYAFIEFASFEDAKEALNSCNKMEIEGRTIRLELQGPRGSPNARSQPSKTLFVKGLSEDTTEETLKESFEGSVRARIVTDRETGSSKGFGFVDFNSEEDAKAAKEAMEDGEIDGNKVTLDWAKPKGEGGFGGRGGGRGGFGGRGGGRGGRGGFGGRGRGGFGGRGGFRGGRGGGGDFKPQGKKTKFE
T1 sequence (P19338 2-710, one chain of several): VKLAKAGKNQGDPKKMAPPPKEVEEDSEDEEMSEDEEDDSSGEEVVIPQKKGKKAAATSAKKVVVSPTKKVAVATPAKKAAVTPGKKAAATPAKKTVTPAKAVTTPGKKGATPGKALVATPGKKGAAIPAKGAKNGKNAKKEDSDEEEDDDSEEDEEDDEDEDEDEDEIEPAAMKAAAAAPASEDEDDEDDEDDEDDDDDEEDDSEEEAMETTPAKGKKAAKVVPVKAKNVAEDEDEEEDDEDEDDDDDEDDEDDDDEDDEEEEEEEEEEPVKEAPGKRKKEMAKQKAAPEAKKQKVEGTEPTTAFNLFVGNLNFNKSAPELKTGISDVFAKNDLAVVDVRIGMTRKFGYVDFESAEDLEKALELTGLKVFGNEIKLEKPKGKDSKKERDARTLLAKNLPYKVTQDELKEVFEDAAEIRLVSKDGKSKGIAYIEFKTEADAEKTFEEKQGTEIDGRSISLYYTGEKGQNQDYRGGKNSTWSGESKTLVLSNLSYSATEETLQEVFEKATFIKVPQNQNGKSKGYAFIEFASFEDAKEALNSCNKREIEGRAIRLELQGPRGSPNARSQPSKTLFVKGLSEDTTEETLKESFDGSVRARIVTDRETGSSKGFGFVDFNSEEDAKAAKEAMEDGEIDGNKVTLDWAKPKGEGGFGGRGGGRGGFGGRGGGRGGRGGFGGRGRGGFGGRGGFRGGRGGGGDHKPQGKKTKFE

Q: Which results are given for TTTGGTGGTGGTGGTTGTGGTGGTGGTGG (ssDNA) [GRO29A (Cy3-1641-3)]?
A: binding signal [1]: 1 fold; binding signal [2]: 1 fold

Q: Which binding signal [3] does the source give for TTTGGTGGTGGTGGTTGTGGTGGTGGTGG (ssDNA, BzdU at T6) [1642-11] here?
A: ≥ 1.5 fold vs GRO29A

Q: For TTTGGTGGTGGTGGTTGTGGTGGTGGTGG (ssDNA, BzdU at T12) [1642-13], which binding signal [3] is on record?
A: ≥ 1.5 fold vs GRO29A

Q: TTTGGTGGTGGTGGTTGTGGTGGTGGTGG (ssDNA, BzdU at T27) [1642-19] was tested. Which binding signal [4] did it give?
A: ~2.3 fold vs GRO29A

Q: And the binding signal [5]?
A: ~2.5 fold vs GRO29A

Q: Which binding signal [3] does the source give for TTTGGTGGTGGTGGTTGTGGTGGTGGTGG (ssDNA, BzdU at T9, T27) [1642-30] here?
A: ≥ 1.5 fold vs GRO29A

Q: Which binding signal [6] does the source give for TTTGGTGGTGGTGGTTGTGGTGGTGGTGG (ssDNA, BzdU at T15, T16) [1642-39] here?
A: ≥ 1.5 fold vs GRO29A

Q: With TTTGGTGGTGGTGGTTGTGGTGGTGGTGG (ssDNA, BzdU at T2, T3, T15, T16) [1642-49] as the binder, how does the binding signal [3] read?
A: ≥ 1.5 fold vs GRO29A

Q: With TTTGGTGGTGGTGGTTGTGGTGGTGGTGG (ssDNA, BzdU at T1, T3, T15, T16) [1642-51] as the binder, how does the binding signal [6] read?
A: ≥ 1.5 fold vs GRO29A
